Test results published in US20260078159A1 (CUGENE, published 2026).
Values joined by “and” are separate entries in the source; they are usually repeats but may differ in a detail not shown here. Equal values may be shown once. Read-outs that look alike come from different tables or passages of the source. Each block holds one binder with its values, some of them ahead of it.

Legend:
[1] = target: recombinant human PD1 protein (human, UniProt Q15116 25-170, limits assumed); assay: binding ELISA, plate-coated recombinant human PD1
Description: Antibodies of the invention were tested for their antigen binding activity by well-known methods such as enzyme-linked immunosorbent assay (ELISA). Briefly, Nunc Maxisorp plates (ThermoFisher) were coated with recombinant human PD1 protein in bicarbonate buffer, pH 9.4 (ThermoFisher), overnight at 4° C., using 1 μg of antigen per well (100 μL/well). After triple washing with PBS/0.05% Tween 20, plates were incubated with SuperBlock (ThermoFisher) for two hours at room temperature to block nonspecific binding. The PD1 antibodies, serially diluted three-fold with blocking buffer (PBS with 1% bovine serum albumin) were added to the plates (100 μL/well) post washing and incubated at room temperature for one hour. After another washing, antibodies were detected by incubating with a horseradish peroxidase (HRP)-conjugated goat anti-human IgG Fc antibody (ThermoFisher) diluted 1:5000 in blocking buffer (100 μL/well) for one hour at room temperature. After a final wash, TMB substrate (ThermoFisher) at 100 μL/well was added. Plates were sealed and left to incubate in dark for 5-20 minutes. The reaction was stopped by adding 2N sulfuric acid (Ricca Chemical) (50 μL/well), and the absorbance was measured at 450 nm with a plate reader. The curves were plotted, and the half-maximal effective concentration (EC₅₀) values were calculated using GraphPad Prism software.

[2] = target: T1, human PD1 on cells (human, UniProt Q15116 25-288); assay: cell-based or functional assay
[3] = target: T1, human PD1 on cells; assay: cell-based or functional assay; remark: listed apart in the source
[4] = target: T1, human PD1 on cells; assay: cell-based or functional assay; remark: listed apart in the source
[5] = target: T1, human PD1 on cells; assay: flow cytometry on PD1+ HEK293 cells, % positive cells
Description: (§1) Additionally, HEK 293T cells stably expressing human PD1 gene (Crown Bioscience) was used to determine the cell-based binding strength of the optimized PD1 antibodies by flow cytometry. After harvesting, HEK293-hPD1 cells were seeded into a 96-well U-bottom plate at 1×10⁵ cells/well (100 μL), incubated with Fc block (1:50) for 20 minutes at 4° C., and subsequently washed with FACS buffer (PBS, 1% FBS). Cells were then treated with three-fold serial dilutions of each antibody at concentrations ranging from 0.01-100 nM in FACS buffer for 30 minutes at 4° C. Subsequently, cells were washed twice with FACS buffer to remove unbound molecules, and 40 µL of the 1:100 diluted PE-labeled goat anti-human Fc secondary antibody (eBiosciences) was added to the cells. Following a 30-minute incubation at 4° C. and another double wash with FACS buffer, antibodies bound to the cells were detected with PE-labeled secondary antibody by flow cytometry (BD ACCURI-C6), and EC₅₀ values were calculated using GraphPad Prism software.

[6] = target: T1, human PD1 on cells; assay: flow cytometry on PD1+ HEK293 cells, MFI
Description: as §1

T1 sequence (Q15116 25-288 limits assumed): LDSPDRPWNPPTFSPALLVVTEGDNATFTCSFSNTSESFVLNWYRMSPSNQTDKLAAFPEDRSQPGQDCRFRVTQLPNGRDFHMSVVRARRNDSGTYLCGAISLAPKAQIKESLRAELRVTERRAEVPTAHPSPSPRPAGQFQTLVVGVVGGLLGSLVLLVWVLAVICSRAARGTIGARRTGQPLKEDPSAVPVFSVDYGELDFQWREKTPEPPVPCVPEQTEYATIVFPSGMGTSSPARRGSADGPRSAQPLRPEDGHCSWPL
Sequence of recombinant human PD1 protein (Q15116 25-170 limits assumed): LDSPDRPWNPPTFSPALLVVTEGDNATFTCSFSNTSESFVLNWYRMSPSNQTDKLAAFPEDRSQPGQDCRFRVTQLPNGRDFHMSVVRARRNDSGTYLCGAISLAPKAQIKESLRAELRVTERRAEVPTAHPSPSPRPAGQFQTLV

B1: P-1148 (antibody, human IgG1, kappa, V domains shown)
VH: QVQLVQSGVEVKKPGASVKVSCKASGYTFTNYYMYWVRQAPGQGLEWMGGINPSNGGTNFAQKFQGRVTLTTDSSTTTAYMELKSLQFDDTAVYYCARRDYRFDMGFDYWGQGTTVTVSS
VL: EIVLTQSPATLSLSPGERATLSCRASQGVSTSGYSYLHWYQQKPGQAPRLLIYLASYRASGVPARFSGSGSGTDFTLTISSLEPEDFAVYYCQHSRDLPLTFGGGTKVEIKR
notes: Full-length IgG1 L234A/L235A/G237A, kappa
- EC50 [1]: 0.093 nM
- PD1 blocking activity (reporter assay) EC50 [2]: 1.56 nM
- PD1 blocking activity (reporter assay) Fold induction [2]: 4.63 fold
- PD1 blocking activity (reporter assay) Vmax [2]: 48200 RLU

B6: P-1127 (antibody, human IgG1, kappa, V domains shown)
VH: QVQLVQSGVEVKKPGASVKVSCKASGYTFTNYYMYWVRQAPGQGLEWMGGINPSNGGTNFNEKFKNRVTLTTDSSTTTAYMELKSLQFDDTAVYYCARRDYRFDMGFDYWGQGTTVTVSS
VL: EIVLTQSPATLSLSPGERATLSCRASQGVSTSGYSYLHWYQQKPGQAPRLLIYLASYRESGVPARFSGSGSGTDFTLTISSLEPEDFAVYYCQHSRDLPLTFGGGTKVEIKR
- PD1 blockade reporter assay EC50 [4]: 0.39 nM and 0.54 nM

B10: P-1129 (antibody, human IgG1, kappa, V domains shown)
VH: QVQLVQSGVEVKKPGASVKVSCKASGYTFTNYYMYWVRQAPGQGLEWMGGINPSNGGTNFNEKFKNRVTLTTDSSTTTAYMELKSLQFDDTAVYYCARRDYRFDMGFDYWGQGTTVTVSS
VL: EIVLTQSPATLSLSPGERATLSCRASQGVSTSGYSYLHWYQQKPGQAPRLLIYLASYRASGVPARFSGSGSGTDFTLTISSLEPEDFAVYYCQHSRDLPLTFGGGTKVEIKR
- PD1 blockade reporter assay EC50 [4]: 0.58 nM

B11: P-1150 (antibody, human IgG1, kappa, V domains shown)
VH: QVQLVQSGVEVKKPGASVKVSCKASGYTFTNYYMYWVRQAPGQGLEWMGGINPSNGGTNFAQKFQGRVTLTTDSSTTTAYMELKSLQFDDTAVYYCARRDYRFDMGFDYWGQGTTVTVSS
VL: EIVLTQSPATLSLSPGERATLSCRASQGVSTSGYSYLAWYQQKPGQAPRLLIYLASYRASGVPARFSGSGSGTDFTLTISSLEPEDFAVYYCQHSRDLPLTFGGGTKVEIKR
notes: as for B1
- EC50 [1]: 0.088 nM
- PD1 blocking activity (reporter assay) EC50 [2]: 5.55 nM
- PD1 blocking activity (reporter assay) Fold induction [2]: 3.49 fold
- PD1 blocking activity (reporter assay) Vmax [2]: 36500 RLU

B12: P-1151 (antibody, human IgG1, kappa, V domains shown)
VH: QVQLVQSGVEVKKPGASVKVSCKASGYTFTNYYMYWVRQAPGQGLEWMGGINPSNGGTNYAQKFQGRVTLTTDSSTTTAYMELKSLQFDDTAVYYCARRDYRFDMGFDYWGQGTTVTVSS
VL: EIVLTQSPATLSLSPGERATLSCRASQGVSTSGYSYLHWYQQKPGQAPRLLIYLASYRASGVPARFSGSGSGTDFTLTISSLEPEDFAVYYCQHSRDLPLTFGGGTKVEIKR
notes: as for B1
- EC50 [1]: 0.065 nM
- PD1 blocking activity (reporter assay) EC50 [2]: 2.83 nM
- PD1 blocking activity (reporter assay) Fold induction [2]: 4.15 fold
- PD1 blocking activity (reporter assay) Vmax [2]: 44300 RLU

B14: P-1153 (antibody, human IgG1, kappa, V domains shown)
VH: QVQLVQSGVEVKKPGASVKVSCKASGYTFTNYYMYWVRQAPGQGLEWMGGINPSNGGTNYAQKFQGRVTLTTDSSTTTAYMELKSLQFDDTAVYYCARRDYRFDMGFDYWGQGTTVTVSS
VL: EIVLTQSPATLSLSPGERATLSCRASQGVSTSGYSYLAWYQQKPGQAPRLLIYLASYRASGVPARFSGSGSGTDFTLTISSLEPEDFAVYYCQHSRDLPLTFGGGTKVEIKR
notes: as for B1
- EC50 [1]: 0.11 nM
- PD1 blocking activity (reporter assay) EC50 [2]: 9.88 nM
- PD1 blocking activity (reporter assay) Fold induction [2]: 3.04 fold
- PD1 blocking activity (reporter assay) Vmax [2]: 30800 RLU
- decrease in PD1 blockade potency (EC50) compared to P-0734 [4]: ~20 fold

Continued, values first:

- PD1 blocking activity (reporter assay) EC50 [3]: 6.21 nM
- PD1 blocking activity (reporter assay) Fold induction [3]: 4.07 fold
- PD1 blocking activity (reporter assay) Vmax [3]: 42000 RLU
- decrease in Emax and fold induction compared to P-0734 [4]: 25%
- reduction in potency (EC50) compared to P-0734 [4]: 10 fold
B2: P-1175 (antibody, human IgG1, kappa, V domains shown)
VH: EVQLLESGGGLVQPGGSLRLSCAASGFTFTNYYMYWVRQAPGKGLEWVSGINPSNGGTNYADKFKGRFTISRDNSKNTLYLQMNSLRAEDTAVYYCARRDYRFDMGFDYWGQGTLVTVSS
VL: EIVLTQSPATLSLSPGERATLSCRASKGVSTSGYSYLHWYQQKPGQAPRLLIYLASYLESGVPARFSGSGSGTDFTLTISSLEPEDFAVYYCQHSRDLPLTFGGGTKVEIKR

- PD1 blocking activity (reporter assay) EC50 [3]: 1.51 nM
- PD1 blocking activity (reporter assay) Fold induction [3]: 4.77 fold
- PD1 blocking activity (reporter assay) Vmax [3]: 48100 RLU
B3: P-1177 (antibody, human IgG1, kappa, V domains shown)
VH: EVQLLESGGGLVQPGGSLRLSCAASGFTFTNYYMYWVRQAPGKGLEWMGGINPSNGGTNYADKFKGRFTISRDNSKNTLYLQMNSLRAEDTAVYYCARRDYRFDMGFDYWGQGTLVTVSS
VL: EIVLTQSPATLSLSPGERATLSCRASKGVSTSGYSYLHWYQQKPGQAPRLLIYLASYLESGVPARFSGSGSGTDFTLTISSLEPEDFAVYYCQHSRDLPLTFGGGTKVEIKR

- PD1 blocking activity (reporter assay) EC50 [3]: 0.68 nM
- PD1 blocking activity (reporter assay) Fold induction [3]: 5.5 fold
- PD1 blocking activity (reporter assay) Vmax [3]: 53100 RLU
B4: P-1178 (antibody, human IgG1, kappa, V domains shown)
VH: EVQLLESGGGLVQPGGSLRLSCAASGFTFTNYYMYWVRQAPGKGLEWMGGINPSNGGTNYADKFKGRFTLSTDSSKNTLYLQMNSLRAEDTAVYYCARRDYRFDMGFDYWGQGTLVTVSS
VL: EIVLTQSPATLSLSPGERATLSCRASKGVSTSGYSYLHWYQQKPGQAPRLLIYLASYLESGVPARFSGSGSGTDFTLTISSLEPEDFAVYYCQHSRDLPLTFGGGTKVEIKR

- PD1 blocking activity (reporter assay) EC50 [3]: 0.67 nM
- PD1 blocking activity (reporter assay) Fold induction [3]: 5.27 fold
- PD1 blocking activity (reporter assay) Vmax [3]: 52100 RLU
B5: P-1176 (antibody, human IgG1, kappa, V domains shown)
VH: EVQLLESGGGLVQPGGSLRLSCAASGFTFTNYYMYWVRQAPGKGLEWVSGINPSNGGTNYADKFKGRFTLSTDSSKNTLYLQMNSLRAEDTAVYYCARRDYRFDMGFDYWGQGTLVTVSS
VL: EIVLTQSPATLSLSPGERATLSCRASKGVSTSGYSYLHWYQQKPGQAPRLLIYLASYLESGVPARFSGSGSGTDFTLTISSLEPEDFAVYYCQHSRDLPLTFGGGTKVEIKR

- EC50 [5]: 0.019 nM
- EC50 [6]: 0.087 nM
B7: P-1198 (antibody, human IgG1, kappa, V domains shown)
VH: EVQLLESGGGLVQPGGSLRLSCAASGFTFTNYYMYWVRQAPGKGLEWVSGINPSNGGTNFADKFKGRFTISRDSSKNTLYLQMNSLRAEDTAVYYCARRDYRFDMGFDYWGQGTLVTVSS
VL: EIVLTQSPATLSLSPGERATLSCRASQGVSTSGYSYLHWYQQKPGQAPRLLIYLASYRESGVPARFSGSGSGTDFTLTISSLEPEDFAVYYCQHSRDLPLTFGGGTKVEIKR
notes: as for B1

- PD1 blockade reporter assay EC50 [4]: 0.73 nM
B8: P-1238 (antibody, human IgG1, kappa, V domains shown)
VH: EVQLLESGGGLVQPGGSLRLSCAASGFTFTNYYMYWVRQAPGKGLEWMGGINPSNGGTNYADKFKGRFTLSTDSSKNTLYLQMNSLRAEDTAVYYCARRDYRFDMGFDYWGQGTLVTVSS
VL: EIVLTQSPATLSLSPGERATLSCRASQGVSTSGYSYLHWYQQKPGQAPRLLIYLASYRESGVPARFSGSGSGTDFTLTISSLEPEDFAVYYCQHSRDLPLTFGGGTKVEIKR

- PD1 blocking activity (reporter assay) EC50 [3]: 9.18 nM
- PD1 blocking activity (reporter assay) Fold induction [3]: 3.26 fold
- PD1 blocking activity (reporter assay) Vmax [3]: 29600 RLU
- drop in potency compared to P-0734 [4]: 15 fold
B9: P-1181 (antibody, human IgG1, kappa, V domains shown)
VH: EVQLLESGGGLVQPGGSLRLSCAASGFTFTNYYMYWVRQAPGKGLEWVSGINPSNGGTNFNDSVKGRFTISRDNSKNTLYLQMNSLRAEDTAVYYCARRDYRFDMGFDYWGQGTLVTVSS
VL: EIVLTQSPATLSLSPGERATLSCRASKGVSTSGYSYLHWYQQKPGQAPRLLIYLASYLESGVPARFSGSGSGTDFTLTISSLEPEDFAVYYCQHSRDLPLTFGGGTKVEIKR

- PD1 blockade reporter assay EC50 [4]: 0.67 nM
B13: P-1174 (antibody, human IgG1, kappa, V domains shown)
VH: QVQLVQSGVEVKKPGASVKVSCKASGYTFTNYYMYWVRQAPGQGLEWMGGINPSNGGTNFAQKFQGRVTLTTDSSTTTAYMELKSLQFDDTAVYYCARRDYRFDMGFDYWGQGTTVTVSS
VL: EIVLTQSPATLSLSPGERATLSCRASQGVSTSGYSYLHWYQQKPGQAPRLLIYLASYRESGVPARFSGSGSGTDFTLTISSLEPEDFAVYYCQHSRDLPLTFGGGTKVEIKR
